# Results taken from patent US20260242735A1 (UNIVERSIT T BASEL, published 2026).
# B1: Refmab #2 (antibody, V domains shown)
# VH: QVQLVQSGAEVKKPGSSVKVSCKASGGTFSDYAISWVRQAPGQGLEWMGRIIPILGVADYAQKFQGRVTITADKSTRTAYMELSSLRSEDTAVYYCARNWADAFDIWGQGTMVTVSS
# VL: DIQLTQSPSSLSASVGDRVTITCRASQGISSVLAWYQQKPGKAPKLLIYDASSLESGVPSRFSGSGSGTDFTLTISSLQPEDFATYYCQQFDSSITFGQGTKLEIK
# notes: The alanine scan used IgG or Fab
# B2: Refmab #1 (antibody, V domains shown)
# VH: EVQLVQSGAEVKKPGSSVKVSCKASGYTITDSNIHWVRQAPGQSLEWIGYIYPYNGGTDYNQKFKNRATLTVDNPTNTAYMELSSLRSEDTAFYYCVNGNPWLAYWGQGTLVTVSS
# VL: DIQLTQSPSTLSASVGDRVTITCRASESLDNYGIRFLTWFQQKPGKAPKLLMYAASNQGSGVPSRFSGSGSGTEFTLTISSLQPDDFATYYCQQTKEVPWSFGQGTKVEVK
# notes: The alanine scan used IgG or Fab; also called hP67.6
# B3: Refmab #4 (antibody, V domains shown)
# VH: QVQLVQSGAEVKKPGESVKVSCKASGYTFTNYGMNWVKQAPGQGLEWMGWINTYTGEPTYADKFQGRVTMTTDTSTSTAYMEIRNLGGDDTAVYYCARWSWSDGYYVYFDYWGQGTSVTVSS
# VL: DIVMTQSPDSLTVSLGERTTINCKSSQSVLDSSTNKNSLAWYQQKPGQPPKLLLSWASTRESGIPDRFSGSGSGTDFTLTIDSPQPEDSATYYCQQSAHFPITFGQGTRLEIK
# notes: In the alanine scan antibodies were used as IgG or Fab
# B4: Refmab #2 (antibody, V domains shown)
# VH: B1 VH
# VL: B1 VL
# notes: as for B3
# B5: Refmab #1 (antibody, V domains shown)
# VH: B2 VH
# VL: B2 VL
# notes: In the alanine scan antibodies were used as IgG or Fab; also called hP67.6
# B6: Refmab #3 (antibody, V domains shown)
# VH: QVQLVQSGAEVKKPGSSVKVSCKASGYTFTDYNMHWVRQAPGQGLEWIGYIYPYNGGTGYNQKFKSKATITADESTNTAYMELSSLRSEDTAVYYCARGRPAMDYWGQGTLVTVSS
# VL: DIQMTQSPSSLSASVGDRVTITCRASESVDNYGISFMNWFQQKPGKAPKLLIYAASNQGSGVPSRFSGSGSGTDFTLTISSLQPDDFATYYCQQSKEVPWTFGQGTKVEIK
# notes: as for B3
# Biological target: human CD33 K313A (human, UniProt P20138 18-364)
# Experiment: alanine scan, flow cytometry, HEK293-T;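 further: antibody binding to each alanine-substituted CD33 mutant expressed transiently in HEK293-T, read as fluorescence minus background, mean of duplicates, relative to wild-type CD33 set as 100%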
# Description: (§1) An alanine scan on human CD33 was performed to the determine the residues on CD33 that are involved in binding to the antibodies investigated. […] Briefly, a mutation library of CD33 was created by high-throughput, site-directed mutagenesis. Each residue was individually mutated to alanine, with alanine codons mutated to serine. The mutant library was arrayed in 384-well microplates and transiently transfected into HEK293-T. Following transfection, cells were incubated with the indicated antibodies (IgG or Fab) at concentrations pre-determined using an independent immunofluorescence titration curve on wild type CD33. […] Binding of each antibody to each mutant clone was determined in duplicates. For each point, background fluorescence was subtracted from the raw data, which were then normalized to antibody reactivity with wild type CD33.
# (§2) Critical residues for antibody binding (outlined in dark grey) were residues whose mutations led to a binding of the test Abs of less than 20%. Additional secondary residues (outlined in light grey) were identified that led to a binding of the test Abs of between 20 and 40% as compared to the wild type CD33.
row,Mean % WT Binding [% WT binding],Binder
1,108,B1
2,84.1,B2

# Biological target: human CD33 K215A (human, UniProt P20138 18-364)
# Experiment: alanine scan, flow cytometry, HEK293-T;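 further: antibody binding to each alanine-substituted CD33 mutant expressed transiently in HEK293-T, read as fluorescence minus background, mean of duplicates, relative to wild-type CD33 set as 100%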
# Description: as §1, §2
# Sequence of human CD33 K215A (P20138 18-364 K215A limits assumed): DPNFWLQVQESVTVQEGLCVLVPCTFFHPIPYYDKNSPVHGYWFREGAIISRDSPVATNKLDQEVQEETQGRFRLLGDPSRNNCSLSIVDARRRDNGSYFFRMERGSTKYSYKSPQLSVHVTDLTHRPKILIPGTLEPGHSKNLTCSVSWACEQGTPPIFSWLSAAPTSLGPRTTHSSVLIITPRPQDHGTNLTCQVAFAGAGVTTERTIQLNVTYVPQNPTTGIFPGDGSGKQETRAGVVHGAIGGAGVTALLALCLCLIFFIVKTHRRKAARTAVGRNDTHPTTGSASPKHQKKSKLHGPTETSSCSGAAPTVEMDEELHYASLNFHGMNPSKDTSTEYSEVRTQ
row,Mean % WT Binding [%],Binder
1,96.7,B3
2,98.4,B4
3,84.5,B5
4,79.8,B6

# Biological target: human CD33 R287A (human, UniProt P20138 18-364)
# Experiment: alanine scan, flow cytometry, HEK293-T;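 further: antibody binding to each alanine-substituted CD33 mutant expressed transiently in HEK293-T, read as fluorescence minus background, mean of duplicates, relative to wild-type CD33 set as 100%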
# Description: as §1, §2
row,Mean % WT Binding [% WT binding],Binder
1,110,B1
2,94.7,B2

# Biological target: human CD33 V267A (human, UniProt P20138 18-364)
# Experiment: alanine scan, flow cytometry, HEK293-T;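 further: antibody binding to each alanine-substituted CD33 mutant expressed transiently in HEK293-T, read as fluorescence minus background, mean of duplicates, relative to wild-type CD33 set as 100%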
# Description: as §1, §2
row,Mean % WT Binding [% WT binding],Binder
1,114,B1
2,88.3,B2

# Biological target: human CD33 H259A (human, UniProt P20138 18-364)
# Experiment: alanine scan, flow cytometry, HEK293-T
# Description: as §1, §2
row,Mean % WT Binding [% WT binding],Binder
1,109,B1
2,97.4,B2

# Biological target: human CD33 Y233A (human, UniProt P20138 18-364)
# Experiment: alanine scan, flow cytometry, HEK293-T
# Description: as §1, §2
# Sequence of human CD33 Y233A (P20138 18-364 Y233A limits assumed): as the sequence (P20138 18-364 K215A limits assumed) above, with A198K, Y216A counted along it
row,Mean % WT Binding [%],Binder
1,98.5,B3
2,107,B4
3,115,B5
4,146,B6

# Biological target: human CD33 Q228A (human, UniProt P20138 18-364)
# Experiment: alanine scan, flow cytometry, HEK293-T
# Description: as §1, §2
# Sequence of human CD33 Q228A (P20138 18-364 Q228A limits assumed): as the sequence (P20138 18-364 K215A limits assumed) above, with A198K, Q211A counted along it
row,Mean % WT Binding [%],Binder
1,112,B3
2,120,B4
3,99.4,B5
4,157,B6

# Biological target: human CD33 T173A (human, UniProt P20138 18-364)
# Experiment: alanine scan, flow cytometry, HEK293-T
# Description: as §1, §2
row,Mean % WT Binding [%],Binder
1,119,B3
2,134,B4
3,106,B5
4,97,B6

# Biological target: human CD33 T191A (human, UniProt P20138 18-364)
# Experiment: alanine scan, flow cytometry, HEK293-T
# Description: as §1, §2
# Sequence of human CD33 T191A (P20138 18-364 T191A limits assumed): as the sequence (P20138 18-364 K215A limits assumed) above, with T174A, A198K counted along it
row,Mean % WT Binding [%],Binder
1,95.1,B3
2,114,B4
3,91.4,B5
4,80,B6

# Biological target: human CD33 G245A (human, UniProt P20138 18-364)
# Experiment: alanine scan, flow cytometry, HEK293-T
# Description: as §1, §2
row,Mean % WT Binding [% WT binding],Binder
1,112,B1
2,84.3,B2

# Biological target: human CD33 S195A (human, UniProt P20138 18-364)
# Experiment: alanine scan, flow cytometry, HEK293-T
# Description: as §1, §2
# Sequence of human CD33 S195A (P20138 18-364 S195A limits assumed): as the sequence (P20138 18-364 K215A limits assumed) above, with S178A, A198K counted along it
row,Mean % WT Binding [%],Binder
1,112,B3
2,119,B4
3,86.9,B5
4,95.2,B6

# Biological target: human CD33 G264A (human, UniProt P20138 18-364)
# Experiment: alanine scan, flow cytometry, HEK293-T
# Description: as §1, §2
row,Mean % WT Binding [% WT binding],Binder
1,105,B1
2,95,B2

# Biological target: human CD33 P235A (human, UniProt P20138 18-364)
# Experiment: alanine scan, flow cytometry, HEK293-T
# Description: as §1, §2
row,Mean % WT Binding [%],Binder
1,101,B3
2,108,B4
3,81.4,B5
4,120,B6

# Biological target: human CD33 L271A (human, UniProt P20138 18-364)
# Experiment: alanine scan, flow cytometry, HEK293-T
# Description: as §1, §2
row,Mean % WT Binding [% WT binding],Binder
1,113,B1
2,100,B2

# Biological target: human CD33 R202A (human, UniProt P20138 18-364)
# Experiment: alanine scan, flow cytometry, HEK293-T
# Description: as §1, §2
# Sequence of human CD33 R202A (P20138 18-364 R202A limits assumed): as the sequence (P20138 18-364 K215A limits assumed) above, with R185A, A198K counted along it
row,Mean % WT Binding [%],Binder
1,88.7,B3
2,112,B4
3,86.7,B5
4,128,B6

# Biological target: human CD33 L210A (human, UniProt P20138 18-364)
# Experiment: alanine scan, flow cytometry, HEK293-T
# Description: as §1, §2
row,Mean % WT Binding [%],Binder
1,92.3,B3
2,98.2,B4
3,93,B5
4,84,B6

# Biological target: human CD33 Q204A (human, UniProt P20138 18-364)
# Experiment: alanine scan, flow cytometry, HEK293-T
# Description: as §1, §2
# Sequence of human CD33 Q204A (P20138 18-364 Q204A limits assumed): as the sequence (P20138 18-364 K215A limits assumed) above, with Q187A, A198K counted along it
row,Mean % WT Binding [%],Binder
1,99.8,B3
2,112,B4
3,93.7,B5
4,126,B6

# Biological target: human CD33 P301A (human, UniProt P20138 18-364)
# Experiment: alanine scan, flow cytometry, HEK293-T
# Description: as §1, §2
row,Mean % WT Binding [% WT binding],Binder
1,91.8,B1
2,101,B2

# Biological target: human CD33 A255S (human, UniProt P20138 18-364)
# Experiment: alanine scan, flow cytometry, HEK293-T
# Description: as §1, §2
row,Mean % WT Binding [% WT binding],Binder
1,109,B1
2,98.8,B2

# Biological target: human CD33 G260A (human, UniProt P20138 18-364)
# Experiment: alanine scan, flow cytometry, HEK293-T
# Description: as §1, §2
row,Mean % WT Binding [% WT binding],Binder
1,105,B1
2,81.9,B2

# Biological target: human CD33 K283A (human, UniProt P20138 18-364)
# Experiment: alanine scan, flow cytometry, HEK293-T
# Description: as §1, §2
row,Mean % WT Binding [% WT binding],Binder
1,102,B1
2,92.7,B2

# Biological target: human CD33 C276A (human, UniProt P20138 18-364)
# Experiment: alanine scan, flow cytometry, HEK293-T
# Description: as §1, §2
row,Mean % WT Binding [% WT binding],Binder
1,103,B1
2,83.4,B2

# Biological target: human CD33 F243A (human, UniProt P20138 18-364)
# Experiment: alanine scan, flow cytometry, HEK293-T
# Description: as §1, §2
row,Mean % WT Binding [% WT binding],Binder
1,102,B1
2,86.5,B2

# Biological target: human CD33 P174A (human, UniProt P20138 18-364)
# Experiment: alanine scan, flow cytometry, HEK293-T
# Description: as §1, §2
# Sequence of human CD33 P174A (P20138 18-364 P174A limits assumed): as the sequence (P20138 18-364 K215A limits assumed) above, with P157A, A198K counted along it
row,Mean % WT Binding [%],Binder
1,118,B3
2,117,B4
3,90.9,B5
4,110,B6

# Biological target: human CD33 L229A (human, UniProt P20138 18-364)
# Experiment: alanine scan, flow cytometry, HEK293-T
# Description: as §1, §2
# Sequence of human CD33 L229A (P20138 18-364 L229A limits assumed): as the sequence (P20138 18-364 K215A limits assumed) above, with A198K, L212A counted along it
row,Mean % WT Binding [%],Binder
1,89.1,B3
2,113,B4
3,93.1,B5
4,150,B6

# Biological target: human CD33 W179A (human, UniProt P20138 18-364)
# Experiment: alanine scan, flow cytometry, HEK293-T
# Description: as §1, §2
# Sequence of human CD33 W179A (P20138 18-364 W179A limits assumed): as the sequence (P20138 18-364 K215A limits assumed) above, with W162A, A198K counted along it
row,Mean % WT Binding [%],Binder
1,83.1,B3
2,113,B4
3,93.5,B5
4,103,B6

# Biological target: human CD33 F279A (human, UniProt P20138 18-364)
# Experiment: alanine scan, flow cytometry, HEK293-T
# Description: as §1, §2
row,Mean % WT Binding [% WT binding],Binder
1,116,B1
2,104,B2

# Biological target: human CD33 K288A (human, UniProt P20138 18-364)
# Experiment: alanine scan, flow cytometry, HEK293-T
# Description: as §1, §2
row,Mean % WT Binding [% WT binding],Binder
1,108,B1
2,112,B2

# Biological target: human CD33 Q171A (human, UniProt P20138 18-364)
# Experiment: alanine scan, flow cytometry, HEK293-T
# Description: as §1, §2
row,Mean % WT Binding [%],Binder
1,102,B3
2,90,B4
3,90.8,B5
4,138,B6

# Biological target: T1, human CD33 I198A (human, UniProt P20138 18-364)
# T1 construct: the '-,' is not explained
# Experiment: alanine scan, flow cytometry, HEK293-T
# Description: as §1, §2
# T1 sequence (P20138 18-364 I198A limits assumed): as the sequence (P20138 18-364 K215A limits assumed) above, with I181A, A198K counted along it
row,Mean % WT Binding [%],Binder
1,94.4,B3
2,114,B4
3,86.7,B5
4,91.2,B6

# Biological target: human CD33 E252A (human, UniProt P20138 18-364)
# Experiment: alanine scan, flow cytometry, HEK293-T
# Description: as §1, §2
row,Mean % WT Binding [% WT binding],Binder
1,116,B1
2,98.8,B2

# Biological target: human CD33 E170A (human, UniProt P20138 18-364)
# Experiment: alanine scan, flow cytometry, HEK293-T
# Description: as §1, §2
# Sequence of human CD33 E170A (P20138 18-364 E170A limits assumed): as the sequence (P20138 18-364 K215A limits assumed) above, with E153A, A198K counted along it
row,Mean % WT Binding [%],Binder
1,95.5,B3
2,123,B4
3,90.9,B5
4,148,B6

# Biological target: human CD33 T223A (human, UniProt P20138 18-364)
# Experiment: alanine scan, flow cytometry, HEK293-T
# Description: as §1, §2
# Sequence of human CD33 T223A (P20138 18-364 T223A limits assumed): as the sequence (P20138 18-364 K215A limits assumed) above, with A198K, T206A counted along it
row,Mean % WT Binding [%],Binder
1,106,B3
2,126,B4
3,103,B5
4,93.5,B6

# Biological target: human CD33 A261S (human, UniProt P20138 18-364)
# Experiment: alanine scan, flow cytometry, HEK293-T
# Description: as §1, §2
row,Mean % WT Binding [% WT binding],Binder
1,100,B1
2,84.1,B2

# Biological target: human CD33 G220A (human, UniProt P20138 18-364)
# Experiment: alanine scan, flow cytometry, HEK293-T
# Description: as §1, §2
# Sequence of human CD33 G220A (P20138 18-364 G220A limits assumed): as the sequence (P20138 18-364 K215A limits assumed) above, with A198K, G203A counted along it
row,Mean % WT Binding [%],Binder
1,115,B3
2,132,B4
3,104,B5
4,114,B6

# Biological target: human CD33 G256A (human, UniProt P20138 18-364)
# Experiment: alanine scan, flow cytometry, HEK293-T
# Description: as §1, §2
row,Mean % WT Binding [% WT binding],Binder
1,117,B1
2,89.8,B2
